The data set in a line: PET hydrolysis product formed (TPA+MHET+BHET, UV-Vis) per mg enzyme (mmol/mg enzyme); higher = more PET depolymerisation activity; extreme values may be limits of the assay. To be noted: 24 h. As to the method:
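Purified PET hydrolases, 2.5 ug enzyme on 3.5 mg amorphous PET film (aFilm) or crystalline PET powder (cryPow) in 0.5 mL of 50 mM buffer (NaCitrate pH 4.5/5.5, NaPhosphate 6.5/7.5, glycine 8.5/9.5) at 60 or 70 C with shaking for 24 h. Total aromatic product by UV-Vis (260/280 nm, blank-subtracted, normalised per mg enzyme) and individual TPA, MHET, BHET concentrations by UHPLC-DAD at 240 nm; duplicate reactions.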

Where [1] appears, read: PET substrate: aFilm, 60 °C, pH 4.5.
The mark [2] stands for this setting: PET substrate: aFilm, 60 °C, pH 5.5.
The mark [3] stands for this setting: PET substrate: aFilm, 60 °C, pH 6.5.
The mark [4] stands for this setting: PET substrate: aFilm, 60 °C, pH 7.5.
The mark [5] stands for this setting: PET substrate: aFilm, 60 °C, pH 8.5.
The mark [6] stands for this setting: PET substrate: aFilm, 60 °C, pH 9.5.
[7] abbreviates: PET substrate: aFilm, 70 °C, pH 4.5.
The mark [8] stands for this setting: PET substrate: aFilm, 70 °C, pH 5.5.
The mark [9] stands for this setting: PET substrate: aFilm, 70 °C, pH 6.5.
Setting [10] is: PET substrate: aFilm, 70 °C, pH 7.5.
The mark [11] stands for this setting: PET substrate: aFilm, 70 °C, pH 8.5.
[12] abbreviates: PET substrate: aFilm, 70 °C, pH 9.5.
The mark [13] stands for this setting: PET substrate: cryPow, 60 °C, pH 4.5.
Where [14] appears, read: PET substrate: cryPow, 60 °C, pH 5.5.
[15] abbreviates: PET substrate: cryPow, 60 °C, pH 6.5.
[16] abbreviates: PET substrate: cryPow, 60 °C, pH 7.5.
The mark [17] stands for this setting: PET substrate: cryPow, 60 °C, pH 8.5.
[18] abbreviates: PET substrate: cryPow, 60 °C, pH 9.5.
[19] abbreviates: PET substrate: cryPow, 70 °C, pH 4.5.
The mark [20] stands for this setting: PET substrate: cryPow, 70 °C, pH 5.5.
Where [21] appears, read: PET substrate: cryPow, 70 °C, pH 6.5.
The mark [22] stands for this setting: PET substrate: cryPow, 70 °C, pH 7.5.
Where [23] appears, read: PET substrate: cryPow, 70 °C, pH 8.5.
Where [24] appears, read: PET substrate: cryPow, 70 °C, pH 9.5.

Data on five sequences can be found in the supplement of paper PMC11196671.

± gives the standard deviation of the averaged measurements.

For the sequence “ADNPYQRGPDPTNASIEAATGPFAVGTQPIVGASGFGGGQIYYPTDTSQTYGAVVIVPGFISVWAQLAWLGPRLASQGFVVIGIETSTITDLPDPRGDQALAALDWATTRSPVRSRIDRTRLAAAGWSMGGGGLRRAACQRPSLKAIVGMAPWNTEKNWSCVTVPTLFFGGSSDAVASPNDHAKPFYNSITRAEKDYIELCNADHFFPTSANTTMAKYFISWLKRWVDNDTRYTQFLCPGPSTGLFAPVCASMNTCPF [CaPETaseM9]”, the “PET hydrolysis product formed” value is, setting by setting: under setting [1], 0; under setting [2], 0.0213 ± 0.013; under setting [3], 0.0426 ± 0.0061; under setting [4], 0.132 ± 0.037; under setting [5], 0.0575 ± 0.005; under setting [6], 0.102 ± 0.029. Also, the “PET hydrolysis product formed” value is 0 under setting [7]; 0 under setting [8]; 0 under setting [9]; 0 under setting [10]; 0 under setting [11]; 0 under setting [12]. Also, the “PET hydrolysis product formed” value worked out at 0.016 ± 0.0019 under setting [13]; 0.0317 ± 0.0017 under setting [14]; 0.0476 ± 0.0037 under setting [15]; 0.0789 ± 0.011 under setting [16]; 0.0427 ± 0.0075 under setting [17]; 0.0717 ± 0.019 under setting [18]. The “PET hydrolysis product formed” value is, setting by setting: under setting [19], 0; under setting [20], 0.00351 ± 0.005; under setting [21], 0.0154 ± 0.0042; under setting [22], 0.0196 ± 0.0026; under setting [23], 0.0178 ± 0.0023; under setting [24], 0.0148 ± 0.0087.

Take “ANPYERGPNPTDALLEARSGPFSVSEENVSRLSASGFGGGTIYYPRENNTYGAVAISPGYTGTEASIAWLGERIASHGFVVITIDTITTLDQPDSRAEQLNAALNHMINRASSTVRSRIDSSRLAVMGHSMGGGGSLRLASQRPDLKAAIPLTPWHLNKNWSSVTVPTLIIGADLDTIAPVATHAKPFYNSLPSSISKAYLELDGATHFAPNIPNKIIGKYSVAWLKRFVDNDTRYTQFLCPGPRDGLFGEVEEYRSTCPF [TfCut2]”: the “PET hydrolysis product formed” value reads like this: under setting [1], 0; under setting [2], 0.0295 ± 0.0072; under setting [3], 0.0361 ± 0.011; under setting [4], 0.111 ± 0.025; under setting [5], 0.0556 ± 0.0097; under setting [6], 0.133 ± 0.015. In addition, the “PET hydrolysis product formed” value reads like this: under setting [7], 0; under setting [8], 0; under setting [9], 0.0032 ± 0.0045; under setting [10], 0; under setting [11], 0.0109 ± 0.00071; under setting [12], 0.0072 ± 0.0013. The “PET hydrolysis product formed” value by setting is: under setting [13], 0; under setting [14], 0; under setting [15], 0.00709 ± 0.01; under setting [16], 0.0369 ± 0.026; under setting [17], 0.0198 ± 0.0049; under setting [18], 0.0223 ± 0.019. Further, the “PET hydrolysis product formed” value worked out at 0 under setting [19]; 0 under setting [20]; 0 under setting [21]; 0 under setting [22]; 0 under setting [23]; 0 under setting [24].

Turning to “QDNPYERGPDPTEDSIEAIRGPFSVATERVSSFASGFGGGTIYYPRETDEGTFGAVAVAPGFTASQGSMSWYGERVASHGFIVFTIDTNTRLDAPGQRGRQLLAALDYLVERSDRKVRERLDPNRLAVMGHSMGGGGSLEATVMRPSLKASIPLTPWHLDKTWGQVQVPTFIIGAELDTIAPVSTHAKPFYESLPSSLPKAYMELCGATHFAPNIPNTTIAKYVISWLKRFVDEDTRYSQFLCPNPTDRAICEYRSTCPY [Cut190*SS]”, the “PET hydrolysis product formed” value by setting is: under setting [1], 0; under setting [2], 0; under setting [3], 0.0256 ± 0.0062; under setting [4], 0.154 ± 0.0032; under setting [5], 0.0616 ± 0.0081; under setting [6], 0.162 ± 0.035. The “PET hydrolysis product formed” value is, setting by setting: under setting [7], 0; under setting [8], 0; under setting [9], 0; under setting [10], 0.191 ± 0.0084; under setting [11], 0; under setting [12], 0.169 ± 0.015. Besides, the “PET hydrolysis product formed” value worked out at 0 under setting [13]; 0.0274 ± 0.0032 under setting [14]; 0.0533 ± 0.0029 under setting [15]; 0.0968 ± 0.012 under setting [16]; 0.0772 ± 0.035 under setting [17]; 0.0813 ± 0.026 under setting [18]. Moreover, the “PET hydrolysis product formed” value under setting [19] is 0; the “PET hydrolysis product formed” value under setting [20] was determined as 0; the “PET hydrolysis product formed” value under setting [21] was 0.00998 ± 0.0019; the “PET hydrolysis product formed” value under setting [22] was determined as 0.031; the “PET hydrolysis product formed” value under setting [23] was determined as 0.0112 ± 0.00036; the “PET hydrolysis product formed” value under setting [24] turned out to be 0.0149 ± 0.0056.

For “QTNPYARGPDPTAASLEASAGPFTVRSFTVSRPSGYGAGTVYYPTNAGGTVGAIAIVPGYTARQSSIKWWGPRLASHGFVVITIDTNSTLDQPESRSSQQMAALEQVASLNGTSSSPIYGKVDTARMGVMGWSMGGGGSLISACNNPSLKAAVVQAPWHSSTNFSCVTVPTLIFACENDSIAPVNSSALPIYDSMSENAKQFLEICGGSHSCANTGNSDQALIGKKGVAWMKRFMDNDTRYSTFACENPNSTRVCDFRTANCS [Z1-PETase]”, the “PET hydrolysis product formed” value reads like this: under setting [1], 0; under setting [2], 0.00483 ± 0.0068; under setting [3], 0.113 ± 0.03; under setting [4], 0.617 ± 0.27; under setting [5], 0.103 ± 0.0058; under setting [6], 0.517 ± 0.092. For the same sequence, the “PET hydrolysis product formed” value under setting [7] was determined as 0; the “PET hydrolysis product formed” value under setting [8] amounted to 0; the “PET hydrolysis product formed” value under setting [9] was determined as 0; the “PET hydrolysis product formed” value under setting [10] was 0.00464 ± 0.0066; the “PET hydrolysis product formed” value under setting [11] is 0; the “PET hydrolysis product formed” value under setting [12] worked out at 0.00672 ± 0.0095. In addition, the “PET hydrolysis product formed” value runs as follows: under setting [13], 0; under setting [14], 0.0183 ± 0.014; under setting [15], 0.126 ± 0.0032; under setting [16], 0.152 ± 0.0075; under setting [17], 0.117 ± 0.022; under setting [18], 0.134 ± 0.0067. The “PET hydrolysis product formed” value amounted to 0 under setting [19]; 0 under setting [20]; 0.0331 ± 0.0023 under setting [21]; 0.0691 ± 0.012 under setting [22]; 0.0403 under setting [23]; 0.0592 ± 0.022 under setting [24].

For the sequence “QTNPYARGPNPTAASLEASAGPFTVRSFTVARPVGYGAGTVYYPTNAGGTVGAIAIVPGYTATQSSINWWGPRLASHGFVVITIDTNSTLDKPESRSSQQMAALRQVASLNGTSSSPIYGKVDTARGGVMGWSMGGGGSLISAANNPSLKAAAVMAPWHSSTNFSSVTVPTLIFACENDRIAPVKEYALPIYDSMSLNAKQFLEICGGSHSCACSGNSNQALIGMKGVAWMKRFMDNDTRYSQFACENPNSTAVCDFRTANCS [HotPETase]”, the “PET hydrolysis product formed” value was found to be 0 under setting [1]; 0.126 ± 0.01 under setting [2]; 0.172 ± 0.017 under setting [3]; 1.02 ± 0.28 under setting [4]; 0.116 ± 0.0013 under setting [5]; 0.744 ± 0.13 under setting [6]. Moreover, the “PET hydrolysis product formed” value worked out at 0 under setting [7]; 0 under setting [8]; 0.0334 ± 0.033 under setting [9]; 0.0761 ± 0.082 under setting [10]; 0.049 ± 0.0026 under setting [11]; 0.175 ± 0.067 under setting [12]. Also, the “PET hydrolysis product formed” value was found to be 0 under setting [13]; 0.118 ± 0.008 under setting [14]; 0.14 ± 0.0042 under setting [15]; 0.195 ± 0.031 under setting [16]; 0.104 ± 0.008 under setting [17]; 0.151 ± 0.0065 under setting [18]. Further, the “PET hydrolysis product formed” value under setting [19] is 0; the “PET hydrolysis product formed” value under setting [20] was 0.0481 ± 0.003; the “PET hydrolysis product formed” value under setting [21] was determined as 0.103 ± 0.0067; the “PET hydrolysis product formed” value under setting [22] was 0.094 ± 0.019; the “PET hydrolysis product formed” value under setting [23] was determined as 0.0775 ± 0.0022; the “PET hydrolysis product formed” value under setting [24] worked out at 0.0809 ± 0.015.
